Measured values reported in publication PMC8562477.

Test system: T1, MBP-RstA D52A D52A (Pseudomonas fluorescens 2P24), ORF:4a43b447
T1 sequence: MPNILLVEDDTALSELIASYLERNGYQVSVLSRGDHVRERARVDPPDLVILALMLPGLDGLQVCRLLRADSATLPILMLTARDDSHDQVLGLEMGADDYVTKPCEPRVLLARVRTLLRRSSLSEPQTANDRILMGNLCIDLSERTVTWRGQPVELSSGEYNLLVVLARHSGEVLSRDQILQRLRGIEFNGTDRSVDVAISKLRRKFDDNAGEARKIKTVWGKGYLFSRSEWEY
Assay: EMSA
Settings: EMSA: 50 mM Tris-HCl pH 7.5, 10 mM MgCl2, 10% glycerol, 0.5 mM EDTA, 50 mM KCl, 3 uM BSA, 50 ng DNA in 20 ul, 30 min room temperature, 6% native PAGE

Row | Sequence | binding
1 | CGGCCTGTGTGATTACACAATTTCACAGAGCGCCTACAAAGCTTCACCCCTGTCATGGGCCTGGATCCCTACCATGAGCGGCTCAATATTGGGGAAGCACC (double strand) [FAM-mexC promoter] | binds more weakly
2 | GGCAATAAACACCTCAATCAGGATGCGTCAGCAATGCGTAAGCATCAGCTGAACAAAATATGAGGCGACGTCTCTTGAAACGCGTCTCCGATCTATACAGGCCTTTGTCAGGCTTTTGTAAATCCGGATATTACGCAATTTGGCTGTTTACAAACAACCGTGTACGTAAGTATATTTCTTAGCATCCTACTAATTGAAAAAATGCTCCTTTTTTACCCTTCCACCTTTCGAGTGCGCCAGTTACGCGCCTGGACCCGAGGATTT (double strand) [FAM-emhA promoter] | binds more weakly
